In the nanobody polyreactivity screen of Harvey et al. (2022):

Assay: yeast display, Sf9 membrane polyspecificity reagent, FACS + sequencing; frameworks hold sequencing errors
Outline: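 Using colony PCR, genes from sorted yeast display clones were amplified, then sequenced on MiSeq at 2 × 250 and filtered by CDR length. The clones had been stained with 10% biotinylated, detergent-solubilized Sf9 membrane reagent for 1 hour at 4 °C and sorted by FACS into low and high (top ~1%) gates on anti-HA and streptavidin fluorescence. Polyreactivity labels come from the gate of origin.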

## QVQLVESGGGLVQAGGSLRLSCAASGGTFSKYAMGWYRQAPGKEREFVAAITVSGGGTYYADSVKGRFTISRDNAKNPVYLQMNSLKPEDTAVYYCAADLAWTASDYWGHGTQVTVSS
  polyreactivity (PSR sort gate): low polyreactivity

## QVQLVESGGGLVQAGGSLRLSCAASGGTFSKYAMGWYRQAPGKEREFVAAITVSGGGTYYADSVKGRFTISRDNAKNTVYLQMNSLKPEDTAVYYCAADLGWTASDYWGQGTQVTVSS
  polyreactivity (PSR sort gate): low polyreactivity

## QVQLVESGGGLVQAGGSLRLSCAASGGTFSPYDMGWYRQAPGKERELFASITGSGGSTYYADSVKGRFTISRDNAKNTVYLQMNSLKPVDTAVYDCATQPLTWSSYRWDWRAQFDHWGQGTQVTVSS
  polyreactivity (PSR sort gate): low polyreactivity

## QVQLVESGGGLVQAGGSLRLSCAASGGTFSRYVMGWYRQAPGKERELVAAITRSGSTNYADSVKGRFTISRDNAKNTVYLQMNSLKPEDTAVYYCATDKRGRIGGTFDYWGQGTQVTVSS
  polyreactivity (PSR sort gate): low polyreactivity

## QVQLVESGGGLVQAGGSLRLSCAASGGTFSTYTMGCYRQAPGKERELVAGISGRGGSTRYADSVKGRFTISRDNAKNTVYLQMNSLKPEDTAVYYCNARKRSYWGIVFVGLYDYWGQGTQVTVSS
  polyreactivity (PSR sort gate): high polyreactivity

## QVQLVESGGGLVQAGGSLRLSCAASGGTFSYYAMGWYRQAPGKERELVAAISKRGGSTYYADSVKGRFTISRDNAKNTVYLQMNSLKPEDTAVYYCARGYSWSVGYPRVQDMDYWGQGTQVTVSS
  polyreactivity (PSR sort gate): high polyreactivity

## QVQLVESGGGLVQAGGSLRLSCAASGGTFTPYDMGWYRQAPGKERELVASITGSGGSTYYADSVKGRFTISRGNAKNTVYLQMNSLKPEDTAVYYCAAQGYWTYWPYLLRLYDYWGQGTQVTVSS
  polyreactivity (PSR sort gate): low polyreactivity

## QVQLVESGGGLVQAGGSLRLSCAASGGTFTSNAMGWYRQAPGKERELVAAISSRGGTYYADSVKGRFTISRDNAKNTVYVQMNSLKPEDTAVYYCAARGYLYSWNVSHTYDYWGQGTQVTVSS
  polyreactivity (PSR sort gate): high polyreactivity

## QVQLVESGGGLVQAGGSLRLSCAASGGTFVGYAMGWYRQAPGKEREFVAAISGSGGSTYYADSVKGRFTISRDNAKNTVYLQMNSLKPEDTAVYYCAARAVSRRFDYWGQGTQVTVSS
  polyreactivity (PSR sort gate): high polyreactivity

## QVQLVESGGGLVQAGGSLRLSCAASGGTFVGYAMGWYRQAPGKERELVAAINSSGGRTYYADSVKGRFTISRDNAKNTVYLQMNSLKPEDTAVYYCAKPRTYHKDKYDYWGQGTQVTVSS
  polyreactivity (PSR sort gate): high polyreactivity

## QVQLVESGGGLVQAGGSLRLSCAASGGTFVHNAMGWYRQAPGKERELVAAISWSGGSTYYADSVKGRFTISRDNAKNTVYLQMNSLKPEDTAVYYCAADLPDYKDIFDSWGQGTQVTVSS
  polyreactivity (PSR sort gate): low polyreactivity

## QVQLVESGGGLVQAGGSLRLSCAASGGTFVQYVMGWYRPAPGKERELVAAISASGGRTYYADSVKGRFTISRDNAKNSVYLQMNSLKPEDTAVDYCAAERKGSVTYEYDYWGQGTQVSVSS
  polyreactivity (PSR sort gate): high polyreactivity

## QVQLVESGGGLVQAGGSLRLSCAASGGTFVRNTMGWSRQAPGKERELVAGITKNGGSTYYADSVKGRFTISRDNAKNTVYLQMNSLKPEVTAVYYCAIYVSWPLYYYWGQGTQVTVSS
  polyreactivity (PSR sort gate): low polyreactivity

## QVQLVESGGGLVQAGGSLRLSCAASGGTFVSYAMGWYRQAPGKERELVAAITYSGGSTYYADSVKGRFTISRDNAKNTVYLQMNSLKPEDTGVYYCAAPKFSYFSYSPRGKFKYEYWGQGTQVTVSS
  polyreactivity (PSR sort gate): low polyreactivity

## QVQLVESGGGLVQAGGSLRLSCAASGGTFWDYAMGWYRQAPGKERELVAAITYGTASTDYADSVKGRFTISRDNAKNTVYLQMNSLKPEDTAVYYCAARWNQYPYSYSTYDYWGQGTQVTVSS
  polyreactivity (PSR sort gate): low polyreactivity

## QVQLVESGGGLVQAGGSLRLSCAASGGTFWSYAMGCYRQAPGKEREFVAAITTSAGRTNYADSVKGRFTISRDNAKNTVYLQMNSLKPEDTAVYYCAARSAYPGLGYGFDYWGQGTQVTVSS
  polyreactivity (PSR sort gate): low polyreactivity

## QVQLVESGGGLVQAGGSLRLSCAASGGTFYANAMGWYRQAPGKERELVATITSSSGSTSYADSVKGRFTISRDNAKNTVYLQMNSLKPEDTAVYYCAKDSHAQGPYRYKHYHHTGDYWGQGTQVTVSS
  polyreactivity (PSR sort gate): low polyreactivity

## QVQLVESGGGLVQAGGSLRLSCAASGGTFYDNDMGWYRQAPGKERELVATITYSGTSTYYADSVKGRFTISRDNAKNTVYLELNSLKTEDTAVYYCATDVLLYFEPVNLDYWGEGTQVTVSS
  polyreactivity (PSR sort gate): low polyreactivity

## QVQLVESGGGLVQAGGSLRLSCAASGGTFYGYAMGWYRQAPGKERELVAAINYRGGRTYYADSVKGRFTISRDNAKNTVYLQMNSLKPEDTAVYDCAATSDRLDGYDYWGQGTQVTVSS
  polyreactivity (PSR sort gate): high polyreactivity

## QVQLVESGGGLVQAGGSLRLSCAASGGTFYIYVMGWYIQAPGKERELVAAITSGDSTNYADSVKGRFTISRDNAKNTVYLQMNSLKPEDTAVYYCATGYWELRYDYWGQGTQVTVSS
  polyreactivity (PSR sort gate): low polyreactivity

## QVQLVESGGGLVQAGGSLRLSCAASGGTFYRYAMGWYRQAPGKERELVAAISSNGGSTYYADSVKGRFTISRDNAKNTVYLQMNSLKPEDTAVYYCAAARDSIVYGQYDYWGQGTQVTVSS
  polyreactivity (PSR sort gate): low polyreactivity

## QVQLVESGGGLVQAGGSLRLSCAASGGTFYRYAMGWYRQAPGKERELVAAISSSGGSTYYADSVKGRFTISRNNAKNTVYLQMNSLKPEDTAVYYCAAYSFQSHNFDYWGQGTQVTVSS
  polyreactivity (PSR sort gate): high polyreactivity

## QVQLVESGGGLVQAGGSLRLSCAASGGTFYRYAMGWYRQAPGKERELVAAITDSGGSTYYADSVKGRFTISRDNAKNTVYLQMNSLKPEDTAVYYCAAEDIDYTDVTSGYEYWGQGTQVTVSS
  polyreactivity (PSR sort gate): high polyreactivity

## QVQLVESGGGLVQAGGSLRLSCAASGGTFYSYAMGWYRQAPGKERELVAAISRRGGSTYYADSVKGRFTISRDNAKNTVYLQMNSLKPEDTAVYYCNTYIYQVRDDYWGQGTQVTVSS
  polyreactivity (PSR sort gate): high polyreactivity

## QVQLVESGGGLVQAGGSLRLSCAASGGTFYTNVMGWYREAPGKERELVAAITRSGGSTHYADSVKGRFTISRDNAKNTVYLQMNSLKPEDTAVYYCAVGSPYYDGMDYWGQGTQVTVSS
  polyreactivity (PSR sort gate): low polyreactivity

## QVQLVESGGGLVQAGGSLRLSCAASGGTFYTNVMGWYRQAPGKERELVAAITRSGGSTHYADSVKGRFTISRDNAKNTVYLQMNSLKPEDTAVYYCAKDRVGEMYYWGQGTQVTVSS
  polyreactivity (PSR sort gate): low polyreactivity

## QVQLVESGGGLVQAGGSLRLSCAASGGTIAYAMGWYRQAPGKERELVAAISKHGGRTYYADSVKGRFTISRDNAKNTVYLQMNSLKPEDSAVYYCAADAFRGFYWGQGTQVTVSS
  polyreactivity (PSR sort gate): high polyreactivity

## QVQLVESGGGLVQAGGSLRLSCAASGGTLASYAMGRYRQATGKERELVAAITRGGGSTHYADSVKGRFTISRDNAKNTVYLQMNSLKPADTAVYYCNARVRPGYGYWGQGTQVTVSS
  polyreactivity (PSR sort gate): high polyreactivity

## QVQLVESGGGLVQAGGSLRLSCAASGGTLAYYAMGWYRQAPGKERELVAAITRSGGSTYYADSVKGRFTISRDNAKNTVYLQMNSLKPEDTAVYYCAALLAYCKNRWHIEYDYWGQGTQVTVSS
  polyreactivity (PSR sort gate): low polyreactivity

## QVQLVESGGGLVQAGGSLRLSCAASGGTLDVYAMGWYRQAPGKEREFVAAISWSGGRTYYADSVKGRFTISRDNAKNTVYLQMHSLKPEDTAVYYCATRDRAGYYYWGQGTQVTVSS
  polyreactivity (PSR sort gate): high polyreactivity

## QVQLVESGGGLVQAGGSLRLSCAASGGTLYTYAMGWYRQAPGKEWEFVAAITVSGGRTYYADSVKGRFPISRDNAKNTVYLQINSLKPEDTAVYYCAARYWSWRSFKVDYWGQGTQVTVSS
  polyreactivity (PSR sort gate): high polyreactivity

## QVQLVESGGGLVQAGGSLRLSCAASGGTQVKYAMGWYRQAPGKERELVAAISRSTGNTYYADSVKGRFTISRDNAKNTVYLQMNSLKPEDTAVYYCAALKYTVGGKFGYWGQGTQVTVSS
  polyreactivity (PSR sort gate): high polyreactivity

## QVQLVESGGGLVQAGGSLRLSCAASGGTRAHNAMGLYRQAPGKERELVAAISWRGGSTYYADSVKGRCTISRDNAKNTVYLQMNSLKPEDTAVYYCAKEQYVPDRPSFKNLNTYDYWGQGTQVTVSS
  polyreactivity (PSR sort gate): low polyreactivity

## QVQLVESGGGLVQAGGSLRLSCAASGHIFYAYAMGWYRQAPGKERELVASITYRGVSTYYADSVKGRFTISRDNAKNTVYLQMNSLKPEDTAVYYCAAGRSRYLWFGRDFDYWGQGTQVTVSS
  polyreactivity (PSR sort gate): low polyreactivity

## QVQLVESGGGLVQAGGSLRLSCAASGIFAYYAMGWYRQAPGKERELVAAISSSGGSTYYADSVKGRFTISRDNAKNTFYLQMNSLKPEDTAVYYCNVRNYYNDYYYWGQGTQVTVSS
  polyreactivity (PSR sort gate): high polyreactivity

## QVQLVESGGGLVQAGGSLRLSCAASGIFDDNAMGWYRQAPGKEREFVAAITISDGTTYYADSVKGRFTISRDNAKNTVDLQMNSLKPEDTAVYYCAADATYFFVYPSVDWQPDIMGYWGQGTQVTVSS
  polyreactivity (PSR sort gate): low polyreactivity

## QVQLVESGGGLVQAGGSLRLSCAASGIFDYYVMGWYRQAPGKERELVAAISKSDGSTYYADSVKGRFTISRDNAKNTVYLQMNSLKQEDTAVYYCNAKLYYNRMDYWGQGTQVTVSS
  polyreactivity (PSR sort gate): low polyreactivity

## QVQLVESGGGLVQAGGSLRLSCAASGIFFHYAMGWYKQAPGKERELVAAISYSGGRTYYADSVKGRFTISRDNAKNTVYLQMNSLKPEDTAVYYCAARYYIGYGHRTYGYDYWGQGTQVTVSS
  polyreactivity (PSR sort gate): high polyreactivity

## QVQLVESGGGLVQAGGSLRLSCAASGIFRKYAMGWYRQAPGTERELVAAITWGGGRTYYADSVKGRFTISRDNAKNTVYLQMNSLKPEDTAVYYCAAEYSLVPSYKVYYWGQGTQVTVSS
  polyreactivity (PSR sort gate): high polyreactivity

## QVQLVESGGGLVQAGGSLRLSCAASGIFSNYAMGWYRQAPGKERELVAAIRSRSGTTYYADSVKGRFTISRDNAKNTVYLQLNSLKPEDTAVYYCDAGGKSRSYYWGQGTQVTVSS
  polyreactivity (PSR sort gate): high polyreactivity

## QVQLVESGGGLVQAGGSLRLSCAASGIFSRYAMGWYRQAPGKERELVAAISSGDSTNYADSVKGRFTISRDNAKNTVYLQMNSLKPEDTAVYYCATERSHLATGQGYYYVQTFYYWGQGTQVTVSS
  polyreactivity (PSR sort gate): low polyreactivity

## QVQLVESGGGLVQAGGSLRLSCAASGIFVVYAMGWYRQAPGKERELVAAISSGVSTTYADSVKGRFTISRDNAKNTVYLQMNSLKPEDTAVYYCNTLWGHQYIVPYRTREFYYWGQGTQVTVSS
  polyreactivity (PSR sort gate): low polyreactivity

## QVQLVESGGGLVQAGGSLRLSCAASGIFWANGMGWYRQAPGKEREWVAAITSGGSTNYADSVKGRFTISRDNAKNTVYLQMNSLKPEDTAVYYCNKPWYSYRYGGVGYGYWGQGTQVTVSS
  polyreactivity (PSR sort gate): low polyreactivity
